Experimental data taken from the nanobody polyreactivity screen of Harvey et al. (2022).

Assay: yeast display, Sf9 membrane polyspecificity reagent, FACS + sequencing; frameworks hold sequencing errors
How it was run: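 Genes from sorted yeast were amplified by colony PCR, read by MiSeq 2 × 250 sequencing and filtered on CDR length. These cells carried a synthetic nanobody library in Saccharomyces cerevisiae BJ5465 and were sorted by FACS into low and high (top ~1%) gates on anti-HA and streptavidin fluorescence. Polyreactivity is labelled according to the gate of origin.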

Sequence | polyreactivity (PSR sort gate)
QVQLVESGGGLVQAGGSHRLSCASYGLIFESYVMGWDRQAPGKERELVAAIRSSGGSTYYADSVKGRFTISRDNAKNTVYLQMNCLNPEDTAVYYCAANYYYYLTISWWYAYDYWGQGTQVTVSS | low polyreactivity
QVQLVESGGGLVQAGGSLRLSCAASGTTFSYNAIVWYRQAPGKERELVAAISGSGGTTYYADSVKGRFTISRDNAKNTVYLEMNSLKPEDTAVYYCDARPFRSWRYDYWGQGTQVTVSS | low polyreactivity
QVQLVESGGGLVQAGGSLRLSCAASGRNFEQYAMGWYRQAPGKERELVAAISGSGGSTFYADSVKGRFTISRDNAKNTVYVQMNRLKPEDTAVYYCNAPGDGYLYDHTYDYWGQGTQVTVSS | low polyreactivity
QVQLVESGGGLVQAGGSLRLSCAASGSTFGKYAMGWYRQAPGKERELVATISWSGTSTYYADSVKGRFTISRDNAKNTVYLQMNSLKPEDTAVYYCAADSEGVGVKHIYDYWGQGTQVTVSS | low polyreactivity
QVQLVESGGGLVQAGGSLRLSCDASGSIFAKNAMGWYRQAPGKERELVAAIDLNGGSTYYADSVKGRFTISRDTAKNTVYLQMNILKPEDTAVYYCDVYYGHSCVIRSSPEYDSWGQGTQVTVSS | low polyreactivity
QVQLVESGGGLVQAGGSLRLSCAASGRIFHFYAMGWYRQAPGKERELVAAISWSGGSTYYADSVKGRFTISRDNAKNTVYLQMNSLKPEDTAVYYCSKVRGEVAHRKVQYDYWGQGTQVTVSS | low polyreactivity
QDQLVESGGGLVQAGGSLRLSCAASGLTIIFNAMGWYRQAPGKERELVADISSGVNTNYADSVKGRFTISRDNAKNTVYLQMNSLKPEDTAVYYCAARLAQSTGYGYWGQGTQVTVSS | low polyreactivity
QVQLVESGGGLVQAGGSLRLSCAASGITFGRNAMGWYRQAPGKERELVAAISRGGSTNYADSVKGRFTISRDNAKNTVYLQMNSLKPEDTAVYYGNALSWPHGSWIPIHRRYGYWGQGTQVTVSS | high polyreactivity
QVQLVESGGGLVQAGGSLRLSCAASGFIFAYNAMGWYRQAPGKERELVAAISWSGGSTYYADSVKGRFTISRDNAKNTVYLQMNSLKPEDTAVYYCNKYIRYPFKRYGYWGQGTQVTVSS | high polyreactivity
QVQLVESGGGLVQAGGSLRVSCAASGRTFRYYEMGWYRQAPGKERELVAAISWSGGSTYYADSVKGRFTISRDNAKNSVYLQMNSLKPEDTAVYYCGAPKPIYSYPTYYYWGQGTQVTVSS | high polyreactivity
QVQLVESGGGLVQAGGSLRLSCAASGITFRYYAMGWSRQAPWKERELVAVISSTGITNYADSVKGRFTISRDNAKNTVYLQMNSLKPEDTAVYYCAAGLWYSYDYWGQGTQVTVSS | high polyreactivity
QDQLVESGGCLVQAGGSLRLSCAASGSTFGYNVMGRYRQAPGKERELVAAISSSGGSTYYADSVKGRFSISRDNAKNTVYLQMNSLKPEDTAVYYCARSTYPYRYGYWGQGTQVTVSS | high polyreactivity
QVQLVESGGGLVQAGGSLRLSCAASGLTLSGYAMGWYRQAPGKERELVAAISSTGGSTYYADSVKGRFTISRDNAKNTVYLQMNSLKPEDTAVYYCAKGFSPTRVRLRYPRYDTYNHWGQGTQVTVSS | high polyreactivity
QVQLVESGGGLVQAGGSLRLSCAASGSIFDGYAMGWYRQAPGKEREFVASIRFSTGRTYYADSVKGRFTISRDNAKNSVYLQMNSLKPEDTAGYYCNAPQGFVWRYSSWGPYDYWGQGTQVTVSS | high polyreactivity
QVQLVESGGGLVQAGGSLRLSCAASGFTFQYYSMGWYRQAPGKERELVAAISSSGGSTYYADSVKGRFTISRDNAENTVYLQMNSLKPEDTAVYYCAIRVSTYGFSGYDYWGQGTQVTVSS | high polyreactivity
QVQLVESGGGLVQAGGSLRLSCADSGRTQWSYAIGWYRQAPGKERELVATISYSGGSTYYADSVKGRFTISRDNAKNTVYLQMNSLKPEATAVYYCNAVARWYVLQVYEYDYWGEGTQVTVSS | low polyreactivity
QVQLVESGGGIVQAGGSLRLSCAASGFTFGLYAMGWYRQAPGKERELVAVISSSGGSTYYADSVKGRFTISRDNAKNTVYLQMNSLKPEDTAVYYCAAEWHDYKFDVTYDYWGQVTQVTVSS | low polyreactivity
QVQLVESGGGLVQAGGSLRLSCAASGFIFRGYAMGWYRQPPGKERELVATITNGGSTYYADSVKGRFTISRDNAKNTVYLQMNSLKPEDTAVYFCAAVTKFGEYAPGSKGYGYWGQGSQVTVSS | low polyreactivity
QVQLVESGGGLVQAGGSLRLSCAASGRIFGYYGMGWYRQAPGKERELVAAITDDGDSTYYADSVKGRFTISRDNAKNTVYLQMNSLKPEDTAVYYCNALGYYVNKMDYWGQGTQVTVSS | low polyreactivity
QVQLVESGGGLVQAGGSLRLSCAASGSTFCGYAMGWYRQAPGKERELVAAITNGGSTYADSVKGRFTISRDNAKNTVYLQMNSLKPEDTAVYYCNTETGPSPVPVYDTEVDSWGQRTQVTVSS | low polyreactivity
QVQLVESGGGLVQAGGSLRLICAASGSTSPYYTRGWYRQAPGKERELVASINESGGSTYYADSVKARFTISRDNAKNTVYLQMHTLKPEDTAGYNCNAEYTTPSYPVYSIDYYWFDYWGQGTQVTVSS | low polyreactivity
QVQLVESRGGLVQAGGSLRLSCAASGRTFHRNAMGWYRQPPGKERELVAAITGDGRTNYADSVKGRFTISRDNAKNTVYLQMNSLKPVDTAVYYCAARFSYRSYDYWGQGTQVTVSS | low polyreactivity

Sequence | polyreactivity (PSR sort gate)
QVQLVESGGGLVQAGGSLRFSCAASGSTFGTYAMGWYRQAPGKERELVAAITSGGSTDYADSVKGRFTISRDNAKNTVYLQMNSLKPEDTAVYYCNATWELLSYYYLFWGYDYWGQGTQVTVSS | low polyreactivity
QVQLVESGGGLVQAGGSLRLSCAASGRIFKVNAMGWYRQAPGKERELVAVINSRGGSTYYADSVKGRFTISRDNAKNTVYLQMNSLKPEDTAVYYCAAPLTYFKRVYYWGQGTQVTVSS | high polyreactivity
QVQLVESGGGLVQAGGSLRLSCAASGSTFGYYAMGWSRQAPGKEREFVAAITYGDGNTYYADSVKGRFTISRDNAKNTVYLQMNRLKREDTEVYYCAKYYWGPTGAHGGYGYWGQGTQVTVCS | low polyreactivity
QVQLVESGGGLVQAGGSLRLSCAASGSTFAINTMGSYREAPGKERELVAAISWSGGSTYYADSVKGRFTISRDNAKNTVYLQMNSLKPEDTAVYYCAARVPGWYVPGYNVYYWGQGTQVTVSS | high polyreactivity
QVQLVESGGGLVQAGGSLRLSCAASGSTFTLYALGWYRQAPGKERELVASITWSGSPYADSVKGRFTISRDNAKNTVYLQMNSLIPEDTAVYYCNTDPRSVVGWYDYWGQGTQVTVSS | low polyreactivity
QVQLVESGGGLVQAGGSLRLSCAASGFIFTWYAMGWYRQAPGKEREFVAGISRSGGRTYYADSLKGRFTISRDNAKNTVYLQMNSQKPEDTAVYDCNAVLVGYRPYREFDHWGQGTQVTVSS | high polyreactivity
QVQLVESGGGLVQAGGSLRLSCAASGYTFAVYAMGWYRQAPGKERELVAAISSDGSTNYADSVKGRFTISRDNAKNTVYFQMNSLKPEDTSVYYCAKVYKDLAGPFYDYWGQGTQVTVSS | low polyreactivity
QVQLVESGGGLVQAGGSLRLSCAASGRTLYLYAMGWYRQAPGKERELVAGITWSGGSTYYADSVKGRFTISRDNAKNTVYLQMNSLKPEDTAVYYCAAVSYPDYDYWGQGTQVTVSS | low polyreactivity
QVQLVESGGGLVQAGGSLRLSCAASGSTSKNYAMGWYRQAPGKERELVAAITRGTSTNYADSVKGRFTISRDNAKNTVYLQMNSLKPEDTAVYYCNVERHRVWDYQWREEDDYWGQGTQVTVSS | low polyreactivity
QVQLVESGGGLVQAGGSLRLSCASSGSTFWFYAMGWYRQAPGKERELVAAITRSAGSTYYADSVKGRFTISRDNAKNTVYLQMNSLKPEGTAVYYCAAQRESLYGGFDYWGQGTQVTVSS | low polyreactivity
QVQLVESGGGLVQAGGSLRLSCAASGSIFGNAMGWYRQAPGKEREFVAAISSSGSSTYYADSVKGRFTISRDNAKNTVYLQMNSLKPEDTAVYYCANRRRSAAPKYDYWGQGTQVTVSS | high polyreactivity
QVQLVESGGCLVQAGGSLRLSSAASGITFYLYAMGWYRKAPGKVRELVATISRSGGSTYADSVKGRFTISRDNAKNTVYLQMHSMKPEDTAVYYCNADLLSTGFIAYDYWGQGTQVTVSS | low polyreactivity
QVQHVESGGGLVQAGGSLRLSCAASGRIFTYYTMGWYRPAPGKEREFVAAISWSGTSTYYADSVKGRFRISRDNAKNTVYLQMKSLKPEDTAVYSCAARNWYSRYDYWGQGTQVTVSS | high polyreactivity
QVQLVESGGGLVQAGGSLRLSCAASGSTFTINVMGWYRQAPGKERELVAAINGGGRTNYADSVKGRFTISRDNAKNTVYLQMNSLKPEDTAVYYCNARYGNESQGWEDYWGQGTKVTVSS | low polyreactivity
QVQLVESAGGLVQAGGSLRLSCAASGFIFARYAMGWYRQAPGKERELVAAISSSGGITYYADSVKGRFTISRDNAKNTVYFQMNSLKPEDTAVYYCNAESYYFYWPVYSYDYWGQGTQVTVSS | low polyreactivity
QVQLVESGGGLVQAGGSLRLSCAASGSLFNYYAMAWSRTAPGKERELVAGITTSGGSTYYAESVKGRFRISRDNAKNTVYLQMNSLKPEDTAVYYCAAYDYISSTYFLDDYWGQGTQVTVSS | low polyreactivity
LVQLVESGGGLVQAGGSLRLSCAASGFTFGRNAMGWYRQSPGKEREFVADISGSVGSTYYADSVKGRFTISRDNAKNSVYLQMNRLIPEDTAVYYCAADTLYPRWEFDYWGQGTQVTVSS | high polyreactivity
QVQLVQSGAGLVQAGGSLRLSCAPSGRTFWRYPMGLYRQAPGKERELVASISARGGSTYYADSVKGRFTISRDNAKNTVYLQMNSLKPEDTAVYYCKRQSWFTVGGFTYRYDYWGQGTQVTVSS | high polyreactivity
QVQLVESGGGLVQAGGSLRLSCAATGRIFWDYAMGWYRQAPGKERELVAANAWGSGRTYYADSVKGRFTISRDNAKNTVNLQMNSLKPEDTAVYYCHAVRYLFIYPRYDYWGQGTQVTVSS | high polyreactivity
QVQLVESGGALVQEGGSHRLSCAASRRIFVVYAMGWYRQAPGKERELVAAISKRRGSTYYADSVKGRFTISRYNAKNTVYLQMKSQKPEDTAVYYCAVEGVIWSFWPYEYWGQGTQVTVSS | high polyreactivity
QVQLVESGGGLVQAGGSLRLSCAASGQTFDWYAMGWYRQAPGKERELVAAITSVGSTYYADSVKGRFTISRDNAKNSVYLQMNSLKPEDTAVYYCAVEGVIWSFWPYEYWGQGTQVTVSS | high polyreactivity
